By stoichiometry N is commonly meant a count of units in the complex or per binding partner.

In data set [1] the target is Danio rerio calcium hemostasis modulator 1 (drCALHM1), full length, purified channel (Danio rerio) (UniProt E7F2J4). Kind of data set: cryo-EM structure.
For data set [2] the target is unchanged. In words: cryo-EM structure. This is another data set of the same source.
Data set [3] shares this target. Kind of data set: cryo-EM structure. This is another data set of the same source.
Data set [4] deals with the molecule itself. In words: cross-linking.
Data set [5] deals with the molecule itself. In words: cross-linking. The source holds these as a separate data set.

Values joined by “and” are separate entries in the source; they are usually repeats but may differ in a detail not shown here. Equal values may be shown once. Read-outs that look alike come from different tables or passages of the source.

For “Danio rerio calcium hemostasis modulator 1 (drCALHM1), full length, purified channel (from UniProt E7F2J4 1-346) (natural protein)”, the stoichiometry N is 7 and 8 in data set [1]; 7 in data set [2]; 8 in data set [3].

B1: Homo sapiens CALHM1 with a 2x FLAG tag at the C-terminus, expressed in HEK293T cells (natural protein, H. sapiens, UniProt Q8IU99 1-346, looked up)
chain: MMDKFRMIFQFLQSNQESFMNGICGIMALASAQMYSAFDFNCPCLPGYNAAYSAGILLAPPLVLFLLGLVMNNNVSMLAEEWKRPLGRRAKDPAVLRYMFCSMAQRALIAPVVWVAVTLLDGKCFLCAFCTAVPVSALGNGSLAPGLPAPELARLLARVPCPEIYDGDWLLAREVAVRYLRCISQALGWSFVLLTTLLAFVVRSVRPCFTQAAFLKSKYWSHYIDIERKLFDETCTEHAKAFAKVCIQQFFEAMNHDLELGHTHGTLATAPASAAAPTTPDGAEEEREKLRGITDQGTMNRLLTSWHKCKPPLRLGQEEPPLMGNGWAGGGPRPPRKEVATYFSKV
As for B1, the results for the “stoichiometry N” value in “cross-linking [4]” and in the data set “cross-linking [5]” were 8 and 7, respectively.

The record behind these values is article doi:10.1101/2021.01.14.426634 (bioRxiv, 2021).
